Among the data in patent US20130108623A1 are fold reduction of binding against wild type and fold improvement of binding against wild type values, retold here.

One assay concerns the target FcγRIIb (UniProt P31994). The experiment in a line: in vitro binding, method not stated for the single mutant.
The target of the next assay is FcγRIIa (H) variant (UniProt P12318). Described as above.
UniProt P12318, sequence (P12318 34-217 limits assumed, change not shown): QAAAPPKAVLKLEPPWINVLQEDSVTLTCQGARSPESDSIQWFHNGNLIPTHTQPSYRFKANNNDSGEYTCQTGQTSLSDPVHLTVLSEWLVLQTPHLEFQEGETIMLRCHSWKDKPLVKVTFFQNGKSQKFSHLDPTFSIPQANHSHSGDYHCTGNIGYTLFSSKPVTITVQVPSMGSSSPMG

UniProt P31994, sequence (P31994 43-217 limits assumed): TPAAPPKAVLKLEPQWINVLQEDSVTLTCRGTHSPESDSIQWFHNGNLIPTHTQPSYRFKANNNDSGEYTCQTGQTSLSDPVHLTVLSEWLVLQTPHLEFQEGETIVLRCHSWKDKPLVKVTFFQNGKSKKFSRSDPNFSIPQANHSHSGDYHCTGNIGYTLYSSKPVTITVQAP

Regarding “Fc variant D270N (single mutation) (antibody)”, the fold reduction of binding against wild type with FcγRIIb and with FcγRIIa (H) variant was 100 fold each time.

“Fc variant K326E (single mutation) (antibody)” had a fold improvement of binding against wild type with FcγRIIb of 4 fold.
